Assay [1] has as its target MSLN. Description: ELISA on MSLN at pH 6, column 6.25 nM.
The target of assay [2] is MSLN. Description: ELISA on MSLN at pH 7, column 6.25 nM.
The target in assay [3] is MSLN. Description: ELISA on MSLN at pH 7, column 100 nM.
Assay [4] has as its target MSLN. Description: ELISA on MSLN at pH 7, column 1.5625 nM.
Assay [5] concerns the target MSLN. Put plainly: ELISA on MSLN at pH 7, column 25 nM.
Assay [6] deals with MSLN. Description: ELISA on MSLN at pH 6, column 25 nM.
The target in assay [7] is MSLN. Put plainly: ELISA on MSLN at pH 6, column 1.5625 nM.
In assay [8] the target is MSLN. Description: ELISA on MSLN at pH 6, column 100 nM.

This passage reports ELISA reading results from US20260169005A1.

Substance NC yielded an ELISA reading at 6.25nM, pH=6 with MSLN [1] of 0.0183. In addition, in the assay with MSLN [2], the ELISA reading at 6.25nM, pH=7 is 0.0318. In the assay with MSLN [3], this substance showed an ELISA reading at 100nM, pH=7 of 0.0239. Besides, the ELISA reading at 1.5625nM, pH=7 in the assay with MSLN [4] came out at 0.0385. In addition, in the assay with MSLN [5], the ELISA reading at 25nM, pH=7 amounted to 0.0354. In the assay with MSLN [6], this substance displayed an ELISA reading at 25nM, pH=6 of 0.0152. In the assay with MSLN [7], this substance showed an ELISA reading at 1.5625nM, pH=6 of 0.026. Moreover, in the assay with MSLN [8], the ELISA reading at 100nM, pH=6 worked out at 0.0154.
